Data: publication PMC8263008, “Inhibition of Fibrinolysis by Streptococcal Phage LysinSM1” (mBio, 2021)

What was measured:
[1] = biological target: purified human fibrinogen (human) (UniProt P02671); assay: ELISA; competition: immobilised fibrinogen (0.1 μM), 0 to 100 μM lysinSM1, lysin102-198 or lysin1-102, and 100 nM plasminogen; bound plasminogen detected with anti-plasminogen antibody
[2] = biological target: purified human fibrinogen (human) (UniProt P02671); assay: SPR; Reichert-4 SR7500DC; human fibrinogen (0.1 μM, sodium acetate pH 5.5) covalently immobilised on a PEG gold chip; analytes in PBS, 30 μl/min, 3 min association and dissociation; KD from response at equilibrium against concentration
[3] = biological target: MalE-fibrinogen Aα534-610 (variant 8) (human); assay: ELISA; fibrinogen Aα variants (0.1 μM in PBS) immobilised in 96-well plates; FLAG-lysin or plasminogen in PBS-T over a range of concentrations, 1 h 37°C; anti-FLAG or anti-plasminogen; non-linear regression, apparent KD
[4] = biological target: MalE-fibrinogen Aα534-610 (variant 8) (human); assay: SPR; lysinSM1, lysin102-198 or plasminogen on recombinant variant 8 (Aα534-610); otherwise as for fibrinogen
[5] = biological target: T1, purified human fibrinogen (human, UniProt P02671 36-866; P02675 45-491; P02679 27-453, plasma fibrinogen hexamer (AαBβγ)2, 29 disulfides, glycosylated; fibrinopeptides A and B present; Aα taken as the circulating 610-residue form, Bβ starts at pyroGlu, γ as the major γA form (411 aa)); assay: SPR; plasminogen (100 nM) over immobilised fibrinogen after PBS, and again after bound lysinSM1 was removed with glycine buffer pH 2.0; details: both partners purified
[6] = biological target: T1, purified human fibrinogen; assay: SPR; Reichert-4 SR7500DC; human fibrinogen (0.1 μM, sodium acetate pH 5.5) covalently immobilised on a PEG gold chip; analytes in PBS, 30 μl/min, 3 min association and dissociation; KD from response at equilibrium against concentration; details: both partners purified
[7] = biological target: MalE-fibrinogen Aα248-376 (variant 5) (human); assay: ELISA; fibrinogen Aα variants (0.1 μM in PBS) immobilised in 96-well plates; FLAG-lysin or plasminogen in PBS-T over a range of concentrations, 1 h 37°C; anti-FLAG or anti-plasminogen; non-linear regression, apparent KD

Chain of purified human fibrinogen (human) (P02671 36-866, chain 1 of 3): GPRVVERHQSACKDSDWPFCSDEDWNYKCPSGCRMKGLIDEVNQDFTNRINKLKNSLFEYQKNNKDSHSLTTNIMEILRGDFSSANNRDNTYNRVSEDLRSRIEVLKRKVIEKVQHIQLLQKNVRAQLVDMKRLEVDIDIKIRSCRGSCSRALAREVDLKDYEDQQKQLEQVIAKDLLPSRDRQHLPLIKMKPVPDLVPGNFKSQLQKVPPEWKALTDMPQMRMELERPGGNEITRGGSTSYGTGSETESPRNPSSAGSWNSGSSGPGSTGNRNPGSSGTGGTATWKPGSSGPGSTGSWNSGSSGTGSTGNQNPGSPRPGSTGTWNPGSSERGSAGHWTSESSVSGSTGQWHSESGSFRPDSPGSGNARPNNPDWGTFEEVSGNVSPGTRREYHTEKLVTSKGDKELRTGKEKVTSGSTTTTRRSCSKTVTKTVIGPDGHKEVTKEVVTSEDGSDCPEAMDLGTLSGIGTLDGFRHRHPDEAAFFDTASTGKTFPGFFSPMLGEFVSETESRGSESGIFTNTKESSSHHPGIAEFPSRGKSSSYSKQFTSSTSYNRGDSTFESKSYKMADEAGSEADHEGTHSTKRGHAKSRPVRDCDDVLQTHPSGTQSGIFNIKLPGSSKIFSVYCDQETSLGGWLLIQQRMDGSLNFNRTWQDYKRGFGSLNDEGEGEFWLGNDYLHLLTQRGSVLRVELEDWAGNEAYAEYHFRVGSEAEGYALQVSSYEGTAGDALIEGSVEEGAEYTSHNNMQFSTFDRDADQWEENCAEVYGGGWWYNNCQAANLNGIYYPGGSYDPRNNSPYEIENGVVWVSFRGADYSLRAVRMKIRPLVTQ
Chain of purified human fibrinogen (human) (P02675 45-491, chain 2 of 3, further chain): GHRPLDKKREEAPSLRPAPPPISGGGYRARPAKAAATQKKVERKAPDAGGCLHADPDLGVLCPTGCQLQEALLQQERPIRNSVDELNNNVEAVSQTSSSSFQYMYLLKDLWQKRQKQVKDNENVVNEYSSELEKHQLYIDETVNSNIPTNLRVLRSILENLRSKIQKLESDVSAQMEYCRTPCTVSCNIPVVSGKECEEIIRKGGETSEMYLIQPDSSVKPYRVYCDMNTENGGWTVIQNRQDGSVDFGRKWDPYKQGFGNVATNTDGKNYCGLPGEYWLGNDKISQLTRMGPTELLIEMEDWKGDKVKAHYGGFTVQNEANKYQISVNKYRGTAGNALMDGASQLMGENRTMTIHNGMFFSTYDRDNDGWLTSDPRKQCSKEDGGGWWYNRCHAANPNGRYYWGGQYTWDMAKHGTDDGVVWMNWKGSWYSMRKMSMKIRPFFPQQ
Chain of purified human fibrinogen (human) (P02679 27-453, chain 3 of 3, further chain): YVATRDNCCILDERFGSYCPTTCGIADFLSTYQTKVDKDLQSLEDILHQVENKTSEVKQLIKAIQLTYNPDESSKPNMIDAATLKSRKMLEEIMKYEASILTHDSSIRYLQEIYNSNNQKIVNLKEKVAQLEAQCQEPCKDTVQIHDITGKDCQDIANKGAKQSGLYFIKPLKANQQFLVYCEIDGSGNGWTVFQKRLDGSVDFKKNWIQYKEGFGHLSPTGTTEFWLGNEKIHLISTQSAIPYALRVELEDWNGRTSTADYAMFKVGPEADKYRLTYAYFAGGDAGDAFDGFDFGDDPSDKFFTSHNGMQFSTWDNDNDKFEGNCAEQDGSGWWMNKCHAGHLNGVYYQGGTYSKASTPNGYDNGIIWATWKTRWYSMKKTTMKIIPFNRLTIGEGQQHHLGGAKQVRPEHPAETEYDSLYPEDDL
T1 sequence (P02671 36-866, chain 1 of 3): as the sequence (P02671 36-866, chain 1 of 3) above
T1 sequence (P02675 45-491, chain 2 of 3): as the sequence (P02675 45-491, chain 2 of 3, further chain) above
T1 sequence (P02679 27-453, chain 3 of 3): as the sequence (P02679 27-453, chain 3 of 3, further chain) above

Row | Molecule | percent inhibition of plasminogen binding to immobilised fibrinogen [1] [%] | Kd [2] [µM] | Kd [3] [µM] | Kd [4] [µM] | KD after bound lysinSM1 was removed with glycine buffer pH 2.0 [5] [M] | Kd [5] [µM] | Kd [6] [µM] | Kd [7] [µM]
1 | FLAG-tagged lysin102-198 (domain or fragment) | > 75 | 23.2 | 48 | 17.3 |  |  |  | 
2 | recombinant FLAG-tagged lysinSM1 (natural protein) | > 75 | 31.5 |  | 32.3 |  |  |  | 
3 | human plasminogen (natural protein, UniProt P00747 20-810, looked up, plasminogen, human; also called purified plasminogen; recombinant human plasminogen) EPLDDYVNTQGASLFSVTKKQLGAGSIEECAAKCEEDEEFTCRAFQYHSKEQQCVIMAENRKSSIIIRMRDVVLFEKKVYLSECKTGNGKNYRGTMSKTKNGITCQKWSSTSPHRPRFSPATHPSEGLEENYCRNPDNDPQGPWCYTTDPEKRYDYCDILECEEECMHCSGENYDGKISKTMSGLECQAWDSQSPHAHGYIPSKFPNKNLKKNYCRNPDRELRPWCFTTDPNKRWELCDIPRCTTPPPSSGPTYQCLKGTGENYRGNVAVTVSGHTCQHWSAQTPHTHNRTPENFPCKNLDENYCRNPDGKRAPWCHTTNSQVRWEYCKIPSCDSSPVSTEQLAPTAPPELTPVVQDCYHGDGQSYRGTSSTTTTGKKCQSWSSMTPHRHQKTPENYPNAGLTMNYCRNPDADKGPWCFTTDPSVRWEYCNLKKCSGTEASVVAPPPVVLLPDVETPSEEDCMFGNGKGYRGKRATTVTGTPCQDWAAQEPHRHSIFTPETNPRAGLEKNYCRNPDGDVGGPWCYTTNPRKLYDYCDVPQCAAPSFDCGKPQVEPKKCPGRVVGGCVAHPHSWPWQVSLRTRFGMHFCGGTLISPEWVLTAAHCLEKSPRPSSYKVILGAHQEVNLEPHVQEIEVSRLFLEPTRKDIALLKLSSPAVITDKVIPACLPSPNYVVADRTECFITGWGETQGTFGAGLLKEAQLPVIENKVCNRYEFLNGRVQSTELCAGHLAGGTDSCQGDSGGPLVCFEKDKYILQGVTSWGLGCARPNKPGVYVRVSRFVTWIEGVMRNN |  |  | 18 | 17.2 | 1.68e-05 | 19.2 | 10.4 | 85
